{"source": "paper PMC3535496", "origin": "cited, not measured here", "molecular_target": "Jun TAD (Homo sapiens) (UniProt P05412)", "sequence (P05412 47-89)": "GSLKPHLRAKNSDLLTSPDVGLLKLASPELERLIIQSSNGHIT"}
{"substance": "CBP KIX (from UniProt Q92793)", "values": [{"measurement": "Kd", "value": 30, "unit": "µM"}]}
